Test results published in paper doi:10.1101/2024.10.13.618061 (bioRxiv, 2024).

Molecular target: the molecule itself
Assay: negative-staining EM

B1: wheat Sr35 (Triticum monococcum; TmSr35) [change]/[change], untagged (receptor)
chain: MEIAMGAIGSELPKEGELLIGEITLEKKVRKGIESLITELKLMQAVLSKVSKVPADQLDEGVKIWAGNVKELSYQMEDIVDAFMVRVGDGGESTNPKNRVKKILKKVKKLFKNGKDLHRISAALEEVVLQAKQLAELRQRYEQEMRDTSANTSVDPRMMALYTDVTELVGIEETRDKLINMLTEGDDWSKHPLKTISIVGFGGLGKTTLAKAAYDKIKVQFDCGAFVSVSRNPEMKKVLKDILYGLDKVKYENIHNAARDEKYLIDDIIEFLNDKRYLIVIDDIWNEKAWELIKCAFSKKSPGSRLITTTRNVSVSEACCSSEDDIYRMEPLSNDVSRTLFCKRIFSQEEGCPQELLKVSEEILKKCGGVPLAIITIASLLANKGHIKAKDEWYALLSSIGHGLTKNRSLEQMKKILLFSYYDLPSYLKPCLLYLSIFPEDREIRRARLIWRWISEGFVYSEKQDISLYELGDSYFNELVNRSMIQPIGIDDEGKVKACRVHDMVLDLICSLSSEENFVTILDDPRRKMPNSESKVRRLSIQNSKIDVDTTRMEHMRSVTVFSDNVVGKVLDISRFKVLRVLDLEGCHVSDVGYVGNLLHLRYLGLKGTHVKDLPMEIGKLQFLLTLDLRGTKIEVLPWSVVQLRRLMCLYVDYGMKLPSGIGNLTFLEVLDDLGLSDVDLDFVKELGRLTKLRVLRLDFHGFDQSMGKALEESISNMYKLDSLDVFVNRGLINCLSEHWVPPPRLCRLAFPSKRSWFKTLPSWINPSSLPLLSYLDITLFEVRSEDIQLLGTLPALVYLEIWNYSVFEEAHEVEAPVLSSGAALFPCATECRFIGIGAVPSMFPQGAAPRLKRLWFTFPAKWISSENIGLGMRHLPSLQRVVVDVISEGASREEADEAEAALRAAAEDHPNRPILDIW
  stoichiometry N: 5
